Here are results for 21 sequences from the supplement of paper PMC9170038.

Series [1] has as its system K4 kissing-loop RNA reporter. The experiment in a line: apparent KD of K4 kissing-loop reporter; higher = weaker reporter binding. The conditions noted are these: Eterna round: R107. The procedure: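 RNA-MaP round R107: designed RNA switches with theophylline, tryptophan, arginine or FMN aptamers are transcribed on-chip within common flanks. They are titrated with a labelled K4 kissing-loop RNA reporter in RNA-MaP buffer (100 mM Tris pH 7.5, 80 mM KCl, 4 mM MgCl2), without ligand or with the indicated ligand. Median apparent KD per design.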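 Note: bound reporter read as fluorescence of individual clusters on recovered sequencing chips by microscopy, with normalized cluster intensities fitted with a binding model.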

A further series concerns MS2 coat protein. The series can be described thus: apparent KD of MS2 coat protein; designed switch direction (-1 OFF switch, 1 ON switch): -1; higher = weaker reporter binding. The procedure, abridged: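 Three titration conditions were used: no input, 200 uM small-molecule ligand, and an oligonucleotide input. In each, SNAP-549-labelled MS2 coat protein was raised from 0.7 or 1.5 nM, doubling, to 3 µM over designed RNA switches transcribed on Illumina chips by stalled E. coli RNA polymerase. Curve fits of normalised cluster fluorescence gave values whose per-design median over clusters is the apparent KD.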

Where [2] appears, read: input ligand: theophylline 20 uM.
Setting [3] is: input ligand: tryptophan 2.4 mM.
Setting [4] is: input ligand: microRNA oligo, concentration not stated.
Setting [5] is: Eterna round: R95, input ligand: FMN 200 uM.
Setting [6] is: Eterna round: R95, input ligand: microRNA oligo, concentration not stated.
Where [7] appears, read: Eterna round: R95, input ligand: none.

“AAAAUAAUCCAGUGAUGUUGGUUUCCAGAUACCAGCGACGAAAGUCGCCCUUGGCAGCUGUGGACGUACAAAAUAAGUACGUCCU”: the “apparent KD of K4 kissing-loop reporter” value in series [1] (input ligand: FMN 200 uM) stood at 0.318 µM; in series [1] (input ligand: arginine 13.2 mM), 0.362 µM; in series [1] (input ligand: none), 0.359 µM; in series [1] (setting [2]), 0.276 µM; in series [1] (setting [3]) it was 0.3 µM.
Taken in the same sequence, the figures for “AAAAUUGCGGUUUUAAGAUCUUUUUGCUUACGAGGACCGGUACGGCCGCCACUCGAGUCAAGUGAUGUUUGAUUUUCUAUUAUUA [JR_ExcTryptoA_Sub015]” were 0.0924 µM, 0.179 µM, 0.136 µM, 0.189 µM and 0.0716 µM.
“AAACAACGUGACGAUACCAGCUUACUCGGCAAGCCAGUGAUGUUGGUGAAAAGGAGUCAAAGCCCUUGGCAGCGUCGAAGGUCUG [Georbeer]”: the “apparent KD of K4 kissing-loop reporter” value was found to be 0.332 µM in series [1] (input ligand: FMN 200 uM); 0.326 µM in series [1] (input ligand: arginine 13.2 mM); 0.427 µM in series [1] (input ligand: none); 0.15 µM in series [1] (setting [2]); 0.325 µM in series [1] (setting [3]).
Taken in the same sequence, the figures for “AAACAUUGGUCUGAUACCAGCUUGAUCGGUAAACGAUCUACUGGAGUGAUGUUCCUAAAUAGCCCUUGGCAGCAGACCGAUGAAA [MAT - Same State Theophlline B - Mod of Eli - D6]” were 0.187 µM, 0.172 µM, 0.177 µM, 0.132 µM and 0.181 µM.
Turning to “AAACAUUGGUCUGAUACCAGUUAGACCGAUAAGGUCAAAACUGGAGUGAUGUUCCCAAAUAACCCUUGGCAGCAGACCGAUGAAA [MAT - Same State Theophlline B - Mod of Eli - D10]”, the “apparent KD of K4 kissing-loop reporter” value in series [1] (input ligand: FMN 200 uM) was 0.147 µM; in series [1] (input ligand: arginine 13.2 mM) it was 0.066 µM; in series [1] (input ligand: none) it was 0.212 µM; in series [1] (setting [2]) it was 0.185 µM; in series [1] (setting [3]), 0.231 µM.
Taken in the same sequence, the figures for “AAACGCUGGUGAAUAACACUAGCGAAUUCGCGAGGACCGGUACGGCCGCCACUCGCUAACUGCGAGUGAUGUUCGAUAAUAAAAU [Mat - Mod of OpenEnded 3 - D2]” were 0.141 µM, 0.107 µM, 0.154 µM, 0.189 µM and 0.142 µM.
Consider “AAACGUUGGUCGGAUACCAGUUAGACCGAUAAGGUCAAAACUGGAGUGAUGUUCCCAAAUAACCCUUGGCAGCCGACCGACGAAA [MAT - Same State Theophlline B - Mod of Eli - D12]”, for which the “apparent KD of K4 kissing-loop reporter” value in series [1] (input ligand: FMN 200 uM) was determined as 0.318 µM; in series [1] (input ligand: arginine 13.2 mM), 0.126 µM; in series [1] (input ligand: none) it was 0.214 µM; in series [1] (setting [2]), 0.219 µM; in series [1] (setting [3]) it was 0.213 µM.
Take “AAACGUUGGUCUGAUACCAGCUUGAUCGGUAAACGAUCUACUGGAGUGAUGUUCCUAAAUAGCCCUUGGCAGCAGACCGACGAAA [MAT - Same State Theophlline B - Mod of Eli - D7]”: the “apparent KD of K4 kissing-loop reporter” value in series [1] (input ligand: FMN 200 uM) stood at 0.195 µM; in series [1] (input ligand: arginine 13.2 mM), 0.163 µM; in series [1] (input ligand: none), 0.173 µM; in series [1] (setting [2]), 0.118 µM; in series [1] (setting [3]) it was 0.17 µM.
On the same counts, the results for “AAACUUGCAGUGAUGUUGCAAGUAGGUGAUACCAGCAUCGAAAGAUGCCCUUGGCAGCACCAAAACAUCACUUAGGUGCUGUCUA [(H1)-(H2)-(T1)-(T2)-(H)'-(T)'_Design6]” are 0.757 µM, 0.494 µM, 0.622 µM, 0.603 µM and 0.614 µM.
Take “AAAUAGAUCAGUCAACCAGUGAUGUUGGAAGGAGCGUGCGAAAGCACAGGUAGGUCGCCAGAAUAAAAGUGGCUGAUCAAAAUAA”: the “apparent KD of K4 kissing-loop reporter” value in series [1] (input ligand: FMN 200 uM) is 0.357 µM; in series [1] (input ligand: arginine 13.2 mM) it was 0.384 µM; in series [1] (input ligand: none), 0.374 µM; in series [1] (setting [2]) it was 0.508 µM; in series [1] (setting [3]) it was 0.214 µM.
As for “UUUUUAUCUGAAGGAUAUACUUAACAUGAGGAUCACCCAUGUGGUGUUGUGAGUGAGUGAGUUUAGUAGAAGGUCAAUUAUUUU [JMF's solution 19] (Eterna round: R96, puzzle: Exclusion NG 2)”, the “apparent KD of MS2 coat protein” value in the series with MS2 coat protein (input ligand: FMN 200 uM) was determined as 1.31 µM; in the series with MS2 coat protein (setting [4]) it was 0.392 µM; in the series with MS2 coat protein (input ligand: none) it was 0.38 µM.
On to “UUUUUAUUUGAAGGAUAUACUUAACAUGAGGAUCACCCAUGUGGUGUUGUGAGUGAGUGAGUUUAGUAGAAGGUCAAUUCUUUU [JMF's solution 85] (Eterna round: R96, puzzle: Exclusion NG 2)”, for which, in the series on MS2 coat protein (setting [4]), the “apparent KD of MS2 coat protein” value was 0.391 µM.
As to “UUUUUCAGGCCAGAUCCUCACAUGAGGAUCACCCAUGUGCUCGUCUGUUUUCGCGCUAGCUUUUUUUUGGUAGGGCU [Level Boss var2-17] (puzzle: Sensor v3, turn-off variant 1)”, the “apparent KD of MS2 coat protein” value was determined as 0.329 µM with MS2 coat protein (setting [5]), 0.0297 µM in the series with MS2 coat protein (setting [6]) and 0.325 µM in the series with MS2 coat protein (setting [7]).
As to “UUUUUCAGGCCAGAUCCUCACAUGAGGAUCACCCAUGUGCUCGUCUGUUUUCGCUCUUUCUUUUUUUUGUUUGUGCU [Level Boss var2-19] (puzzle: Sensor v3, turn-off variant 1)”, the results for the “apparent KD of MS2 coat protein” value with MS2 coat protein (setting [5]), in the series with MS2 coat protein (setting [6]) and in the series on MS2 coat protein (setting [7]) were 0.181 µM, 0.0275 µM and 0.312 µM, respectively.
Turning to “UUUUUCUCAGGAUAUACAUGAGGAUCACCCAUGUAUAUUAAUGGUAAUACAUGGGAAUGUAGAAGGGAGCUCAU [Omei Ex3 Pseudoloop 15] (Eterna round: R97, puzzle: Exclusion 3)”, the results for the “apparent KD of MS2 coat protein” value in the series on MS2 coat protein (input ligand: FMN 200 uM) and in the series on MS2 coat protein (input ligand: none) were 0.112 µM and 0.122 µM, respectively.
For the sequence “UUUUUGUCAGGAUAUGAUUAGAUCUACUUUUGUAGAUCUAAUCAGAAGGGACAUGAGGAUCACCCAUGUAGUUU [Ex4 - 3 - 11] (puzzle: Exclusion 4)”, the “apparent KD of MS2 coat protein” value in the series on MS2 coat protein (setting [6]) stood at 0.0357 µM.
“UUUUUGUGAGGAUAUCAGUAGUAAAUAAAUAAAAUAACUACUGAGAAGGCACAUGAGGAUCACCCAUGUUCUUU [Mat - Exclusion 4 - Mod of Salish - D67] (puzzle: Exclusion 4)”: in the series with MS2 coat protein (setting [6]), the “apparent KD of MS2 coat protein” value was determined as 0.0171 µM.
“UUUUUUGUUGUGAGGAUAUCGUAGUUAUUUUGUUACGAGAAGGCACAUGAGGAUCACCCAUGUUUUUUGAUGUU [JR_BMOE4_Sub064] (puzzle: Brourd's mod of Exclusion 4)”: the “apparent KD of MS2 coat protein” value in the series on MS2 coat protein (setting [6]) turned out to be 0.0254 µM.
On to “UUUUUUUAUGAAGGAUAUACUUAACAUGAGGAUCACCCAUGUGGUGUUGUGAGUGAGUGAGUUUAGUAGAAGGUCAAUUAUUUU [JMF's solution 23] (Eterna round: R96, puzzle: Exclusion NG 2)”, for which the “apparent KD of MS2 coat protein” value with MS2 coat protein (input ligand: FMN 200 uM) is 0.412 µM; in the series on MS2 coat protein (setting [4]), 0.379 µM; in the series on MS2 coat protein (input ligand: none) it was 0.334 µM.
Regarding “UUUUUUUGAGUAAGGAUAUGAUGCAGGAAACUGCGUCAGAAGGUACAUGAGGAUCACCCAUGUUAAUUUUGUUU [Explosion 14 - Jieux - Brourd's mod of Exclusion 4] (Eterna round: R97, puzzle: Brourd's mod of Exclusion 4)”, the “apparent KD of MS2 coat protein” value in the series with MS2 coat protein (input ligand: FMN 200 uM) is 0.0184 µM; in the series on MS2 coat protein (input ligand: none), 0.0203 µM.
In the case of “UUUUUUUUGCGAGGAUAUGCAUUUAGUUAGUUAGCAGAAGGCGCGUUUCUAUACUCCUCUUCUUACAUGAGGAUCACCCAUGUU [JR_ExcNG1_Sub033] (Eterna round: R96, puzzle: Exclusion NG 1)”, the “apparent KD of MS2 coat protein” value in the series with MS2 coat protein (input ligand: FMN 200 uM) came to 0.0699 µM; with MS2 coat protein (setting [4]), 0.0345 µM; in the series on MS2 coat protein (input ligand: none), 0.0351 µM.
